Measured values as given in IntAct's records for PubMed 29892012.

B1: Zinc finger protein 64 (Homo sapiens), Q9NTW7 (parent)
chain: MNASSEGESFAGSVQIPGGTTVLVELTPDIHICGICKQQFNNLDAFVAHKQSGCQLTGTSAAAPSTVQFVSEETVPATQTQTTTRTITSETQTITVSAPEFVFEHGYQTYLPTESNENQTATVISLPAKSRTKKPTTPPAQKRLNCCYPGCQFKTAYGMKDMERHLKIHTGDKPHKCEVCGKCFSRKDKLKTHMRCHTGVKPYKCKTCDYAAADSSSLNKHLRIHSDERPFKCQICPYASRNSSQLTVHLRSHTASELDDDVPKANCLSTESTDTPKAPVITLPSEAREQMATLGERTFNCCYPGCHFKTVHGMKDLDRHLRIHTGDKPHKCEFCDKCFSRKDNLTMHMRCHTSVKPHKCHLCDYAAVDSSSLKKHLRIHSDERPYKCQLCPYASRNSSQLTVHLRSHTGDTPFQCWLCSAKFKISSDLKRHMIVHSGEKPFKCEFCDVRCTMKANLKSHIRIKHTFKCLHCAFQGRDRADLLEHSRLHQADHPEKCPECSYSCSSAAALRVHSRVHCKDRPFKCDFCSFDTKRPSSLAKHVDKVHRDEAKTENRAPLGKEGLREGSSQHVAKIVTQRAFRCETCGASFVRDDSLRCHKKQHSDQSENKNSDLVTFPPESGASGQLSTLVSVGQLEAPLEPSQDL
partner: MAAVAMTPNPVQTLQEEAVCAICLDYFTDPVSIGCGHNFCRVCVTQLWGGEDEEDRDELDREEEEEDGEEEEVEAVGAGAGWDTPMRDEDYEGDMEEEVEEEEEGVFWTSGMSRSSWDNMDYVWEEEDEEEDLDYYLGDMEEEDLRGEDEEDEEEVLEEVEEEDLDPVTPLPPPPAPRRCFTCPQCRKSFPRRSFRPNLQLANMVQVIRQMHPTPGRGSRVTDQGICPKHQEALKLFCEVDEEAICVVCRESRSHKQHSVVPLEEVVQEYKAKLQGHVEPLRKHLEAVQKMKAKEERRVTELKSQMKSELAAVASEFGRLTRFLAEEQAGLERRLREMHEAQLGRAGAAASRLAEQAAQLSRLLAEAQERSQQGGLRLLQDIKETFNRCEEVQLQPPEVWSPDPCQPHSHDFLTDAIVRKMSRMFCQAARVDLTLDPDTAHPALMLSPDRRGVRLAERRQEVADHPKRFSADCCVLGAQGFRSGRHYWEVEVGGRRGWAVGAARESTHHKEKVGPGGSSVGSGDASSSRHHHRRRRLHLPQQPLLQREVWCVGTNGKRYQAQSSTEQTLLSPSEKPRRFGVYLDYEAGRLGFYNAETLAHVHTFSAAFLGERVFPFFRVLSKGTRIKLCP
B2: Genetic suppressor element 1 (Homo sapiens), Q14687 (parent)
chain: MKGMSHEPKSPSLGMLSTATRTTATVNPLTPSPLNGALVPSGSPATSSALSAQAAPSSSFAAALRKLAKQAEEPRGSSLSSESSPVSSPATNHSSPASTPKRVPMGPIIVPPGGHSVPSTPPVVTIAPTKTVNGVWRSESRQDAGSRSSSGGRERLIVEPPLPQEKAGGPAIPSHLLSTPYPFGLSPSSVVQDSRFPPLNLQRPVHHVVPPSTVTEDYLRSFRPYHTTDDLRMSSLPPLGLDPATAAAYYHPSYLAPHPFPHPAFRMDDSYCLSALRSPFYPIPTPGSLPPLHPSAMHLHLSGVRYPPELSHSSLAALHSERMSGLSAERLQMDEELRREREREREREREREADREREKEREREREKEREQEKEREREKERERELERQREQRAREKELLAAKALEPSFLPVAELHGLRGHATEERGKPSEQLTPTRAEKLKDAGLQAPKPVQHPLHPVPTPHHTVPSLISNHGIFSLPSSSAATALLIQRTNEEEKWLARQRRLRQEKEDRQSQVSEFRQQVLEQHLDMGRPPVPAEAEHRPESTTRPGPNRHEPGGRDPPQHFGGPPPLISPKPQLHAAPTALWNPVSLMDNTLETRRAESHSLHSHPAAFEPSRQAAVPLVKVERVFCPEKAEEGPRKREPAPLDKYQPPPPPPREGGSLEHQPFLPGPGPFLAELEKSTQTILGQQRASLPQAATFGELSGPLKPGSPYRPPVPRAPDPAYIYDEFLQQRRRLVSKLDLEERRRREAQEKGYYYDLDDSYDESDEEEVRAHLRCVAEQPPLKLDTSSEKLEFLQLFGLTTQQQKEELVAQKRRKRRRMLRERSPSPPTIQSKRQTPSPRLALSTRYSPDEMNNSPNFEEKKKFLTIFNLTHISAEKRKDKERLVEMLRAMKQKALSAAVADSLTNSPRDSPAVSLSEPATQQASLDVEKPVGVAASLSDIPKAAEPGKLEQVRPQELSRVQELAPASGEKARLSEAPGGKKSLSMLHYIRGAAPKDIPVPLSHSTNGKSKPWEPFVAEEFAHQFHESVLQSTQKALQKHKGSVAVLSAEQNHKVDTSVHYNIPELQSSSRAPPPQHNGQQEPPTARKGPPTQELDRDSEEEEEEDDEDGEDEEEVPKRKWQGIEAVFEAYQEHIEEQNLERQVLQTQCRRLEARHYSLSLTAEQLSHSVAELRSQKQKMVSERERLQAELDHLRKCLALPAMHWPRGYLKGYPR
partner: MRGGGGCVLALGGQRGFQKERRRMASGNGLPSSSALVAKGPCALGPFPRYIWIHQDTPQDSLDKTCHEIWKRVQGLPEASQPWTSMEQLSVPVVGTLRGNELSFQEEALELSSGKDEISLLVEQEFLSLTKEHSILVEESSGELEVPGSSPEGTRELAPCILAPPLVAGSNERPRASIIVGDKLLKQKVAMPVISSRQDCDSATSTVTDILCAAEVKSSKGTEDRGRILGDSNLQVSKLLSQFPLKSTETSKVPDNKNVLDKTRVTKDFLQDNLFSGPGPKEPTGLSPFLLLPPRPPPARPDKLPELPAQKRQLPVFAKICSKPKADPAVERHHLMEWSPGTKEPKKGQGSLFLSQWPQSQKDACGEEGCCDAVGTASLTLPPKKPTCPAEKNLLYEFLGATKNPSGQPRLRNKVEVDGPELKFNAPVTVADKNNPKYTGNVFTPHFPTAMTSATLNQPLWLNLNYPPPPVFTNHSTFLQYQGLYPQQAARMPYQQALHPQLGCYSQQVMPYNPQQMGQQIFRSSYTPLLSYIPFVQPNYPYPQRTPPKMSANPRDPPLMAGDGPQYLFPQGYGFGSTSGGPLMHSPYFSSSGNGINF
B3: Protein VAC14 homolog (Homo sapiens), Q08AM6 (parent)
chain: MNPEKDFAPLTPNIVRALNDKLYEKRKVAALEIEKLVREFVAQNNTVQIKHVIQTLSQEFALSQHPHSRKGGLIGLAACSIALGKDSGLYLKELIEPVLTCFNDADSRLRYYACEALYNIVKVARGAVLPHFNVLFDGLSKLAADPDPNVKSGSELLDRLLKDIVTESNKFDLVSFIPLLRERIYSNNQYARQFIISWILVLESVPDINLLDYLPEILDGLFQILGDNGKEIRKMCEVVLGEFLKEIKKNPSSVKFAEMANILVIHCQTTDDLIQLTAMCWMREFIQLAGRVMLPYSSGILTAVLPCLAYDDRKKSIKEVANVCNQSLMKLVTPEDDELDELRPGQRQAEPTPDDALPKQEGTASGGPDGSCDSSFSSGISVFTAASTERAPVTLHLDGIVQVLNCHLSDTAIGMMTRIAVLKWLYHLYIKTPRKMFRHTDSLFPILLQTLSDESDEVILKDLEVLAEIASSPAGQTDDPGPLDGPDLQASHSELQVPTPGRAGLLNTSGTKGLECSPSTPTMNSYFYKFMINLLKRFSSERKLLEVRGPFIIRQLCLLLNAENIFHSMADILLREEDLKFASTMVHALNTILLTSTELFQLRNQLKDLKTLESQNLFCCLYRSWCHNPVTTVSLCFLTQNYRHAYDLIQKFGDLEVTVDFLAEVDKLVQLIECPIFTYLRLQLLDVKNNPYLIKALYGLLMLLPQSSAFQLLSHRLQCVPNPELLQTEDSLKAAPKSQKADSPSIDYAELLQHFEKVQNKHLEVRHQRSGRGDHLDRRVVL
partner: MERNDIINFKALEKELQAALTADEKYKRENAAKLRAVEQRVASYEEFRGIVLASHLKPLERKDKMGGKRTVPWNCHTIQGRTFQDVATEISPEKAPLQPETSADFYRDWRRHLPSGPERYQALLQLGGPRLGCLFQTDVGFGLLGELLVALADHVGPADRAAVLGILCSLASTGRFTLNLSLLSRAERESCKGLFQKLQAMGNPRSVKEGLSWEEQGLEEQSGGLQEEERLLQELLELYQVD
B4: Genetic suppressor element 1 (Homo sapiens), Q14687 (parent)
chain: B2 chain
partner: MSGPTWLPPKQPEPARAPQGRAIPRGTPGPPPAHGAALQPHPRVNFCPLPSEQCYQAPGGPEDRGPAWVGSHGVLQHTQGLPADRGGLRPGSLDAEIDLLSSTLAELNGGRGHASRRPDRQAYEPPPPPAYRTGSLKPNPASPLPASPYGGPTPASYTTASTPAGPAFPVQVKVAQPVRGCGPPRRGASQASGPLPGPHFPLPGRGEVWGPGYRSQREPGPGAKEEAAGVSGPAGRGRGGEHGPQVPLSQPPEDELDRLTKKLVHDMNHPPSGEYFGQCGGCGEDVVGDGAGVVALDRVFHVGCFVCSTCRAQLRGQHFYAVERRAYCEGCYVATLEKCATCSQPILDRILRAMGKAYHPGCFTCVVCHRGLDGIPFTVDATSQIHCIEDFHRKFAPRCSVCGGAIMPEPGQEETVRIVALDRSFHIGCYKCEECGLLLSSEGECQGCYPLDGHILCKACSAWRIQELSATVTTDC

Variants of: B1
Details: with tri41_human TRIM41, Q8WV44

| effect of a mutation on the interaction | Variant |
| --- | --- |
| with no effect | D227E |

Variants of: B2
Details: with ca094_human C1orf94, Q6P1W5

| effect of a mutation on the interaction | Variant |
| --- | --- |
| with no effect | R503Q |

Variants of: B2
Details: with ca094_human C1orf94, Q6P1W5
Remark: another data set of the same source

| effect of a mutation on the interaction | Variant |
| --- | --- |
| with no effect | E368K |

Variants of: B3
Details: with daa19_human DNAAF19, Q8IW40

| effect of a mutation on the interaction | Variant |
| --- | --- |
| with no effect | A127S |

Variants of: B4
Details: with trip6_human TRIP6, Q15654

| effect of a mutation on the interaction | Variant |
| --- | --- |
| with no effect | R503Q |
